Assay results reported in patent publication US20130157953A1, “TREATMENT OF CARDIAC CONDITIONS” (Zealand Pharma A/S, priority 2010, published 2013).
Numbered stars: 1 amine (or outer) side, 2 acyl side, 3 side chain; on linkers, the order of the positions; unused ones are H or OH. Bridge positions count the residues as written; N and C are the ends. Square brackets hold non-standard residues; d marks the D form. Side chains are listed from the residue outwards. * marks the point of attachment. γGlu = O=C(O)[C@H](CCC(=O)[*:2])N[*:1]; Palmitoyl = CCCCCCCCCCCCCCCC(=O)*; Lauroyl = CCCCCCCCCCCC(=O)*; Aib = CC(C)(N)C(=O)O; Aoc = NCCCCCCCC(=O)O

B1: Compound 207 (peptide)
peptide: H-H[Aib]QGTFTSDYSKYLDSK([γGlu-Palmitoyl])AARDFVAWLLRA-NH2
SMILES: CCCCCCCCCCCCCCCC(=O)N[C@@H](CCC(=O)NCCCC[C@H](NC(=O)[C@H](CO)NC(=O)[C@H](CC(=O)O)NC(=O)[C@H](CC(C)C)NC(=O)[C@H](Cc1ccc(O)cc1)NC(=O)[C@H](CCCCN)NC(=O)[C@H](CO)NC(=O)[C@H](Cc1ccc(O)cc1)NC(=O)[C@H](CC(=O)O)NC(=O)[C@H](CO)NC(=O)[C@@H](NC(=O)[C@H](Cc1ccccc1)NC(=O)[C@@H](NC(=O)CNC(=O)[C@H](CCC(N)=O)NC(=O)C(C)(C)NC(=O)[C@@H](N)Cc1c[nH]cn1)[C@@H](C)O)[C@@H](C)O)C(=O)N[C@@H](C)C(=O)N[C@@H](C)C(=O)N[C@@H](CCCNC(=N)N)C(=O)N[C@@H](CC(=O)O)C(=O)N[C@@H](Cc1ccccc1)C(=O)N[C@H](C(=O)N[C@@H](C)C(=O)N[C@@H](Cc1c[nH]c2ccccc12)C(=O)N[C@@H](CC(C)C)C(=O)N[C@@H](CC(C)C)C(=O)N[C@@H](CCCNC(=N)N)C(=O)N[C@@H](C)C(N)=O)C(C)C)C(=O)O
B2: Compound 206 (peptide)
peptide: H-H[Aib]QGTFTSDYSKYLDSK([γGlu-Palmitoyl])AAHDFVEWLLRA-NH2
SMILES: CCCCCCCCCCCCCCCC(=O)N[C@@H](CCC(=O)NCCCC[C@H](NC(=O)[C@H](CO)NC(=O)[C@H](CC(=O)O)NC(=O)[C@H](CC(C)C)NC(=O)[C@H](Cc1ccc(O)cc1)NC(=O)[C@H](CCCCN)NC(=O)[C@H](CO)NC(=O)[C@H](Cc1ccc(O)cc1)NC(=O)[C@H](CC(=O)O)NC(=O)[C@H](CO)NC(=O)[C@@H](NC(=O)[C@H](Cc1ccccc1)NC(=O)[C@@H](NC(=O)CNC(=O)[C@H](CCC(N)=O)NC(=O)C(C)(C)NC(=O)[C@@H](N)Cc1c[nH]cn1)[C@@H](C)O)[C@@H](C)O)C(=O)N[C@@H](C)C(=O)N[C@@H](C)C(=O)N[C@@H](Cc1c[nH]cn1)C(=O)N[C@@H](CC(=O)O)C(=O)N[C@@H](Cc1ccccc1)C(=O)N[C@H](C(=O)N[C@@H](CCC(=O)O)C(=O)N[C@@H](Cc1c[nH]c2ccccc12)C(=O)N[C@@H](CC(C)C)C(=O)N[C@@H](CC(C)C)C(=O)N[C@@H](CCCNC(=N)N)C(=O)N[C@@H](C)C(N)=O)C(C)C)C(=O)O
B3: Compound 210 (peptide)
peptide: H-H[Aib]QGTFTSDYSKYLDSK([γGlu-Palmitoyl])AAHDFVEWLLKA-NH2
modifications: lactam 24-28
SMILES: CCCCCCCCCCCCCCCC(=O)N[C@@H](CCC(=O)NCCCC[C@H](NC(=O)[C@H](CO)NC(=O)[C@H](CC(=O)O)NC(=O)[C@H](CC(C)C)NC(=O)[C@H](Cc1ccc(O)cc1)NC(=O)[C@H](CCCCN)NC(=O)[C@H](CO)NC(=O)[C@H](Cc1ccc(O)cc1)NC(=O)[C@H](CC(=O)O)NC(=O)[C@H](CO)NC(=O)[C@@H](NC(=O)[C@H](Cc1ccccc1)NC(=O)[C@@H](NC(=O)CNC(=O)[C@H](CCC(N)=O)NC(=O)C(C)(C)NC(=O)[C@@H](N)Cc1c[nH]cn1)[C@@H](C)O)[C@@H](C)O)C(=O)N[C@@H](C)C(=O)N[C@@H](C)C(=O)N[C@@H](Cc1c[nH]cn1)C(=O)N[C@@H](CC(=O)O)C(=O)N[C@@H](Cc1ccccc1)C(=O)N[C@H](C(=O)N[C@H]1CCC(=O)NCCCC[C@@H](C(=O)N[C@@H](C)C(N)=O)NC(=O)[C@H](CC(C)C)NC(=O)[C@H](CC(C)C)NC(=O)[C@H](Cc2c[nH]c3ccccc23)NC1=O)C(C)C)C(=O)O
B4: Compound 216 (peptide)
peptide: H-H[Aib]QGTFTSDYSKYLDSK([Aoc-Palmitoyl])AAHDFVEWLLSA-NH2
SMILES: CCCCCCCCCCCCCCCC(=O)NCCCCCCCC(=O)NCCCC[C@H](NC(=O)[C@H](CO)NC(=O)[C@H](CC(=O)O)NC(=O)[C@H](CC(C)C)NC(=O)[C@H](Cc1ccc(O)cc1)NC(=O)[C@H](CCCCN)NC(=O)[C@H](CO)NC(=O)[C@H](Cc1ccc(O)cc1)NC(=O)[C@H](CC(=O)O)NC(=O)[C@H](CO)NC(=O)[C@@H](NC(=O)[C@H](Cc1ccccc1)NC(=O)[C@@H](NC(=O)CNC(=O)[C@H](CCC(N)=O)NC(=O)C(C)(C)NC(=O)[C@@H](N)Cc1c[nH]cn1)[C@@H](C)O)[C@@H](C)O)C(=O)N[C@@H](C)C(=O)N[C@@H](C)C(=O)N[C@@H](Cc1c[nH]cn1)C(=O)N[C@@H](CC(=O)O)C(=O)N[C@@H](Cc1ccccc1)C(=O)N[C@H](C(=O)N[C@@H](CCC(=O)O)C(=O)N[C@@H](Cc1c[nH]c2ccccc12)C(=O)N[C@@H](CC(C)C)C(=O)N[C@@H](CC(C)C)C(=O)N[C@@H](CO)C(=O)N[C@@H](C)C(N)=O)C(C)C
B5: Compound 214 (peptide)
peptide: H-H[Aib]QGTFTSDYSKYLDSK([γGlu-Lauroyl])AAHDFVEWLLSA-NH2
SMILES: CCCCCCCCCCCC(=O)N[C@@H](CCC(=O)NCCCC[C@H](NC(=O)[C@H](CO)NC(=O)[C@H](CC(=O)O)NC(=O)[C@H](CC(C)C)NC(=O)[C@H](Cc1ccc(O)cc1)NC(=O)[C@H](CCCCN)NC(=O)[C@H](CO)NC(=O)[C@H](Cc1ccc(O)cc1)NC(=O)[C@H](CC(=O)O)NC(=O)[C@H](CO)NC(=O)[C@@H](NC(=O)[C@H](Cc1ccccc1)NC(=O)[C@@H](NC(=O)CNC(=O)[C@H](CCC(N)=O)NC(=O)C(C)(C)NC(=O)[C@@H](N)Cc1c[nH]cn1)[C@@H](C)O)[C@@H](C)O)C(=O)N[C@@H](C)C(=O)N[C@@H](C)C(=O)N[C@@H](Cc1c[nH]cn1)C(=O)N[C@@H](CC(=O)O)C(=O)N[C@@H](Cc1ccccc1)C(=O)N[C@H](C(=O)N[C@@H](CCC(=O)O)C(=O)N[C@@H](Cc1c[nH]c2ccccc12)C(=O)N[C@@H](CC(C)C)C(=O)N[C@@H](CC(C)C)C(=O)N[C@@H](CO)C(=O)N[C@@H](C)C(N)=O)C(C)C)C(=O)O
B6: Compound 209 (peptide)
peptide: H-H[Aib]QGTFTSDYSKYLDSKAAHDFVEWLLK([γGlu-Palmitoyl])A-NH2
SMILES: CCCCCCCCCCCCCCCC(=O)N[C@@H](CCC(=O)NCCCC[C@H](NC(=O)[C@H](CC(C)C)NC(=O)[C@H](CC(C)C)NC(=O)[C@H](Cc1c[nH]c2ccccc12)NC(=O)[C@H](CCC(=O)O)NC(=O)[C@@H](NC(=O)[C@H](Cc1ccccc1)NC(=O)[C@H](CC(=O)O)NC(=O)[C@H](Cc1c[nH]cn1)NC(=O)[C@H](C)NC(=O)[C@H](C)NC(=O)[C@H](CCCCN)NC(=O)[C@H](CO)NC(=O)[C@H](CC(=O)O)NC(=O)[C@H](CC(C)C)NC(=O)[C@H](Cc1ccc(O)cc1)NC(=O)[C@H](CCCCN)NC(=O)[C@H](CO)NC(=O)[C@H](Cc1ccc(O)cc1)NC(=O)[C@H](CC(=O)O)NC(=O)[C@H](CO)NC(=O)[C@@H](NC(=O)[C@H](Cc1ccccc1)NC(=O)[C@@H](NC(=O)CNC(=O)[C@H](CCC(N)=O)NC(=O)C(C)(C)NC(=O)[C@@H](N)Cc1c[nH]cn1)[C@@H](C)O)[C@@H](C)O)C(C)C)C(=O)N[C@@H](C)C(N)=O)C(=O)O
B7: Compound 208 (peptide)
peptide: H-H[Aib]QGTFTSDYSKYLDSK([γGlu-Palmitoyl])AAHDFVEWLLSA-NH2
SMILES: CCCCCCCCCCCCCCCC(=O)N[C@@H](CCC(=O)NCCCC[C@H](NC(=O)[C@H](CO)NC(=O)[C@H](CC(=O)O)NC(=O)[C@H](CC(C)C)NC(=O)[C@H](Cc1ccc(O)cc1)NC(=O)[C@H](CCCCN)NC(=O)[C@H](CO)NC(=O)[C@H](Cc1ccc(O)cc1)NC(=O)[C@H](CC(=O)O)NC(=O)[C@H](CO)NC(=O)[C@@H](NC(=O)[C@H](Cc1ccccc1)NC(=O)[C@@H](NC(=O)CNC(=O)[C@H](CCC(N)=O)NC(=O)C(C)(C)NC(=O)[C@@H](N)Cc1c[nH]cn1)[C@@H](C)O)[C@@H](C)O)C(=O)N[C@@H](C)C(=O)N[C@@H](C)C(=O)N[C@@H](Cc1c[nH]cn1)C(=O)N[C@@H](CC(=O)O)C(=O)N[C@@H](Cc1ccccc1)C(=O)N[C@H](C(=O)N[C@@H](CCC(=O)O)C(=O)N[C@@H](Cc1c[nH]c2ccccc12)C(=O)N[C@@H](CC(C)C)C(=O)N[C@@H](CC(C)C)C(=O)N[C@@H](CO)C(=O)N[C@@H](C)C(N)=O)C(C)C)C(=O)O
B8: Compound 213 (peptide)
peptide: H-H[Aib]QGTFTSDYSKYLDSKAAK([γGlu-Palmitoyl])DFVAWLLRA-NH2
SMILES: CCCCCCCCCCCCCCCC(=O)N[C@@H](CCC(=O)NCCCC[C@H](NC(=O)[C@H](C)NC(=O)[C@H](C)NC(=O)[C@H](CCCCN)NC(=O)[C@H](CO)NC(=O)[C@H](CC(=O)O)NC(=O)[C@H](CC(C)C)NC(=O)[C@H](Cc1ccc(O)cc1)NC(=O)[C@H](CCCCN)NC(=O)[C@H](CO)NC(=O)[C@H](Cc1ccc(O)cc1)NC(=O)[C@H](CC(=O)O)NC(=O)[C@H](CO)NC(=O)[C@@H](NC(=O)[C@H](Cc1ccccc1)NC(=O)[C@@H](NC(=O)CNC(=O)[C@H](CCC(N)=O)NC(=O)C(C)(C)NC(=O)[C@@H](N)Cc1c[nH]cn1)[C@@H](C)O)[C@@H](C)O)C(=O)N[C@@H](CC(=O)O)C(=O)N[C@@H](Cc1ccccc1)C(=O)N[C@H](C(=O)N[C@@H](C)C(=O)N[C@@H](Cc1c[nH]c2ccccc12)C(=O)N[C@@H](CC(C)C)C(=O)N[C@@H](CC(C)C)C(=O)N[C@@H](CCCNC(=N)N)C(=O)N[C@@H](C)C(N)=O)C(C)C)C(=O)O

molecular target: human glucagon receptor (Glucagon-R) (human, UniProt P47871 26-477); assay: cell-based or functional assay
Sequence (P47871 26-477): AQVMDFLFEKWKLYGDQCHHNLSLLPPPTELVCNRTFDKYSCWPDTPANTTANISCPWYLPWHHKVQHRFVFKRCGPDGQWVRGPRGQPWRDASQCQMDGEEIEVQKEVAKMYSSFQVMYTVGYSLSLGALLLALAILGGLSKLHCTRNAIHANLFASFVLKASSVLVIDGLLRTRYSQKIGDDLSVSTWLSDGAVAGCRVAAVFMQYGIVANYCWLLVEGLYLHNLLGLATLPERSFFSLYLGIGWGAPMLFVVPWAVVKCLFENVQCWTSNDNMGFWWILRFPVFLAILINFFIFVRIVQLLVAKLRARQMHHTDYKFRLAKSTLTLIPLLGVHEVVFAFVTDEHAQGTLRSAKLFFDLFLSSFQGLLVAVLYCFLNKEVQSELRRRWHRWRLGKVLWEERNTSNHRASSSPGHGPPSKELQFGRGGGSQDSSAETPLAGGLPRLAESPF

| EC50 (nM) GuR; cAMP content, HEK293 cells expressing the human glucagon receptor | Binder |
| --- | --- |
| 0.17 nM | B1 |
| 0.16 nM | B2 |
| 0.26 nM | B3 |
| 0.46 nM | B4 |
| 0.78 nM | B5 |
| 0.27 nM | B6 |
| 0.16 nM | B7 |
| 0.63 nM | B8 |

molecular target: human glucagon-like peptide 1 receptor (GLP-1R) (human, UniProt P43220 24-463); assay: cell-based or functional assay

| EC50 (nM) GLP-1R; cAMP content, HEK293 cells expressing human GLP-1R | Binder |
| --- | --- |
| 0.12 nM | B1 |
| 0.09 nM | B2 |
| 0.08 nM | B3 |
| 0.24 nM | B4 |
| 0.14 nM | B5 |
| 0.27 nM | B6 |
| 0.11 nM | B7 |
| 0.15 nM | B8 |
